Data on one substance can be found in patent US20080138335A1.

Assay [1] concerns the target CD40 expressed on Ramos [ATCC] cells (UniProt P25942). In words: flow cytometry (FACS) on Ramos cells expressing CD40, negative control at 2 ug/ml, FIG. 1C.
The target is the same in assay [2]. In words: cell-based or functional assay.
The target is the same in assay [3]. As to the kind of experiment: flow cytometry (FACS) on Ramos cells expressing CD40, negative control at 2 ug/ml, FIG. 1B. (In general: In flow cytometry, cells or beads pass a laser one at a time.)
Assay [4] has the same target. In words: flow cytometry (FACS) on Ramos cells expressing CD40, negative control at 2 ug/ml, FIG. 3.
For assay [5] the target is unchanged. As to the kind of experiment: flow cytometry (FACS) on Ramos cells expressing CD40, negative control at 2 ug/ml, FIG. 1A.

CD40 expressed on Ramos [ATCC] cells, sequence (P25942 21-277 limits assumed): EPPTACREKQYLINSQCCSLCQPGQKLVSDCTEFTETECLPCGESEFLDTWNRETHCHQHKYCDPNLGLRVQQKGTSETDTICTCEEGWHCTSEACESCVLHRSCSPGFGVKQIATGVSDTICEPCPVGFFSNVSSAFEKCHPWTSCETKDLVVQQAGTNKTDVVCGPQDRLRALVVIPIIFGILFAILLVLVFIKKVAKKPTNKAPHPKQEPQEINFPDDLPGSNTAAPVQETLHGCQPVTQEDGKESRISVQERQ

The substance “human IgG1 antibody against human serum albumin” gave an average fluorescence intensity (average fluorescence intensity) in assay [1] of 5.01. Also, in assay [2], the CD95 expression level in Ramos cells stimulated with soluble CD40 ligand, isotype control of FIG. 4 (average fluorescence intensity) was 27.2; the CD95 expression level in Ramos cells, isotype control of FIG. 2A (average fluorescence intensity) was determined as 7.58; the CD95 expression level in Ramos cells, isotype control of FIG. 2B (average fluorescence intensity) turned out to be 7.58; the CD95 expression level in Ramos cells, isotype control of FIG. 2C (average fluorescence intensity) amounted to 6.29. Further, in assay [3], the average fluorescence intensity (average fluorescence intensity) stood at 7.15. This substance also displayed an average fluorescence intensity (average fluorescence intensity) in assay [4] of 5.01. The average fluorescence intensity (average fluorescence intensity) in assay [5] came to 7.15.
